The test system of this data set is MS2 coat protein. The data set can be described thus: apparent KD of MS2 coat protein; designed switch direction (-1 OFF switch, 1 ON switch): 1; higher = weaker reporter binding. The method, boiled down:
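Designed RNA switches with common flanks were made on Illumina chips by stalled E. coli RNA polymerase. Titration with SNAP-549-labelled MS2 coat protein doubled from 0.7 or 1.5 nM up to 3 µM. Apparent KD is each design's median over clusters after curve-fitting normalised fluorescence.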

The mark [1] stands for this setting: input ligand: microRNA oligo, concentration not stated.
Setting [2] is: Eterna round: R95, input ligand: FMN 200 uM.
[3] abbreviates: Eterna round: R95, input ligand: microRNA oligo, concentration not stated.
The mark [4] stands for this setting: Eterna round: R95, input ligand: none.

For the sequence “GCUCGACGUGUUGUCUACAUGAGGAUCACCCAUGUAGGUGCGGAGGAUAUCUACGUGUUUCAUGUAGAGAAGGUCGUGUCGAGC [SameState NG3 #89] (Eterna round: R96, puzzle: Same State NG 3)”, the “apparent KD of MS2 coat protein” value (input ligand: FMN 200 uM) amounted to 40.2 nM, the “apparent KD of MS2 coat protein” value under setting [1] came out at 55.3 nM and the “apparent KD of MS2 coat protein” value (input ligand: none) came to 73.3 nM.

For the sequence “GCUCGAUGAAAGUCCUACAUGAGGAUCACCCAUGUACGUGGGCAGGAUAUCUACAUGCAGAAUGUAGAGAAGGGCCCAUCGAGC [SameState NG3 #59] (Eterna round: R96, puzzle: Same State NG 3)”, the “apparent KD of MS2 coat protein” value stood at 10.4 nM (input ligand: FMN 200 uM), 15.1 nM under setting [1] and 25.2 nM (input ligand: none).

With “GCUCGCACGAUGACCCACAUGAGGAUCACCCAUGUGUGUGGGUAGGAUAUCUAGAUUAAGGAUGUAGAGAAGGGCCGAGCGAGC [SameState NG3 #23] (Eterna round: R96, puzzle: Same State NG 3)”, the “apparent KD of MS2 coat protein” value runs as follows: (input ligand: FMN 200 uM) 576 nM; under setting [1], 429 nM; (input ligand: none) 600 nM.

In the case of “GCUCGGCUGAUGGCCCACAUGAGGAUCACCCAUGUGAGUGGGCAGGAUAUCUAGAUUAAGGAUGUAGAGAAGGGCCUACCGAGC [SameState NG3 #35] (Eterna round: R96, puzzle: Same State NG 3)”, the “apparent KD of MS2 coat protein” value (input ligand: FMN 200 uM) came out at 443 nM, the “apparent KD of MS2 coat protein” value under setting [1] came out at 106 nM and the “apparent KD of MS2 coat protein” value (input ligand: none) came to 244 nM.

For the sequence “GCUGCAAAGGCAGGAUAUGGGUCCAGAGCGCAAAUGCGCUCUGGUACAUGAGGAUCACCCAUGUCCCAGAAGGGCCCAAGCAGC [Inleedbi] (Eterna round: R96, puzzle: Same State NG 2)”, the “apparent KD of MS2 coat protein” value reads like this: (input ligand: FMN 200 uM) 17 nM; under setting [1], 61.3 nM; (input ligand: none) 117 nM.

“GGAAACAAGAGAGGAUAUGCAGAGGAUCACCCUGCAGAAGGCUCCCUAGAGAGGAUAUGCAGAGGAUCACCCUGCAGAAGGCUC [pwkr ssNG DX.25] (Eterna round: R96, puzzle: Same State NG 1)”: the “apparent KD of MS2 coat protein” value is, setting by setting: (input ligand: FMN 200 uM) 4.46 nM; under setting [1], 9.9 nM; (input ligand: none) 24.6 nM.

Turning to “GGAAAGAGGUCAGGAUAUGAAUGGUUGGGACAUGAGGAUCACCCAUGUAAUAGAAGAAAUCUACAUUAGAAGGGACAAGGAAGG [AK SSNG2-V2-5.1] (Eterna round: R96, puzzle: Same State NG 2)”, the “apparent KD of MS2 coat protein” value is 129 nM (input ligand: FMN 200 uM), 116 nM under setting [1] and 212 nM (input ligand: none).

For the sequence “GGAAAGAGGUUAGGAUAUGCAUGGCUGGGACAUGAGGAUCACCCAUGUAAUAGAAGAAAUCUAGGGUAGAAGGGACAAGGAAGG [ssng2 v2 a] (Eterna round: R96, puzzle: Same State NG 2)”, the “apparent KD of MS2 coat protein” value by setting is: (input ligand: FMN 200 uM) 507 nM; under setting [1], 278 nM; (input ligand: none) 644 nM.

For “GGAAUAUUUACAGGAUAUGAGUUGUAAAGUCGAUCAGAAGGGUAGGUGUCUUACACGGUGUGUUACAUGAGGAUCACCCAUGUU [SameState NG1 #20] (Eterna round: R96, puzzle: Same State NG 1)”, the “apparent KD of MS2 coat protein” value by setting is: (input ligand: FMN 200 uM) 136 nM; under setting [1], 147 nM; (input ligand: none) 215 nM.

For the sequence “GGACGUCGAUAAUAUAACUUCACAUGAGGAUCACCCAUGUCACAGGAUAUGGAUCCUAAUUGGAUCCAGAAGGGUGCGACGUCC [Fiskers NG3ss - 36] (Eterna round: R96, puzzle: Same State NG 3)”, the “apparent KD of MS2 coat protein” value runs as follows: (input ligand: FMN 200 uM) 20.7 nM; under setting [1], 61.8 nM; (input ligand: none) 88.8 nM.

Consider “GGACGUCGAUUUCCUACUUAAACAUGAGGAUCACCCAUGUCACAGGAUAUGAGUCCGAUUAGGACUCAGAAGGGUGCGACGUCC [Fiskers NG3ss - 52] (Eterna round: R96, puzzle: Same State NG 3)”, for which the “apparent KD of MS2 coat protein” value (input ligand: FMN 200 uM) was found to be 22.7 nM, the “apparent KD of MS2 coat protein” value under setting [1] came to 11.1 nM and the “apparent KD of MS2 coat protein” value (input ligand: none) came to 18.8 nM.

As to “GGAGAGAGAGCACAGGAUAUUAGAGGAGAGACAUGAGGAUCACCCAUGUAAGAGAGAGAGGAGAGUGAGAAGGGUGAGAGAGAGG [Altered State 2-19 - Jieux - Same State 2] (puzzle: Same State 2)”, the “apparent KD of MS2 coat protein” value runs as follows: under setting [2], 241 nM; under setting [3], 82.9 nM; under setting [4], 213 nM.

For the sequence “GGAGAGAGAGCGCAGGAUAUUCAAGGAGAGACAUGAGGAUCACCCAUGUAAGAGAGAGAGGAGAGGGAGAAGGGUGAGAGAGAGG [Altered State 2-12 - Jieux - Same State 2] (puzzle: Same State 2)”, the “apparent KD of MS2 coat protein” value by setting is: under setting [2], 28.5 nM; under setting [3], 27.8 nM; under setting [4], 22 nM.

In the case of “GGAGAGAGAGCGGAGGAUAUUCAAGGAGAGACAUGAGGAUCACCCAUGUAAGAGAGAGAGGAGAGGGAGAAGGCUGAGAGAGAGG [Altered State 2-11 - Jieux - Same State 2] (puzzle: Same State 2)”, the “apparent KD of MS2 coat protein” value is, setting by setting: under setting [2], 25.1 nM; under setting [3], 25.9 nM; under setting [4], 27.2 nM.

Consider “GGAGCCGGCACCGAGGAUAUUCGUAUUAAAACAUGAGGAUCACCCAUGUAGGCCAGAAGGCCUUGGGAGAAGGCGGAUCGGCUCG [Xeonanis - 2] (puzzle: Same State 2)”, for which the “apparent KD of MS2 coat protein” value reads like this: under setting [2], 12.4 nM; under setting [3], 65.2 nM; under setting [4], 106 nM.

For “GGAGCCGGCACUGAGGAUAUUCAUAAUAAAACAUGAGGAUCACCCAUGUAGGCCAGAAGGCCUUGGGAGAAGGCAGGUCGGCUCG [Mat - Same State 2 - Mod of UCT - D65] (puzzle: Same State 2)”, the “apparent KD of MS2 coat protein” value is, setting by setting: under setting [2], 16.7 nM; under setting [3], 138 nM; under setting [4], 185 nM.

With “GGAGCCGGCACUGAGGAUAUUCAUAUUAAAACAUGAGGAUCACCCAUGUAGGCCAGAAGGCCUUGGGAGAAGGCGGAUCGGCUCG [Xeonanis - 14] (puzzle: Same State 2)”, the “apparent KD of MS2 coat protein” value under setting [2] worked out at 78.7 nM, the “apparent KD of MS2 coat protein” value under setting [3] stood at 181 nM and the “apparent KD of MS2 coat protein” value under setting [4] amounted to 1070 nM.

Turning to “GGAGCCGGCACUGAGGAUAUUCAUUUUAAAACAUGAGGAUCACCCAUGUAGGCCAGAAGGCCUUGGGAGAAGGCAGGUCGGCCCG [Bibimoar - 6] (puzzle: Same State 2)”, the “apparent KD of MS2 coat protein” value stood at 18.4 nM under setting [2], 190 nM under setting [3] and 271 nM under setting [4].

As for “GGAGCCGGCCUAGGAUAUUUCAUAAAAAAACAUGAGGAUCACCCAUGUAGGCCAGAAGGCCUUGGGAAGAAGGAGGUCGGCUCC [Loop Effect - Control] (Eterna round: R96, puzzle: Same State NG 2)”, the “apparent KD of MS2 coat protein” value reads like this: (input ligand: FMN 200 uM) 8.94 nM; under setting [1], 11.9 nM; (input ligand: none) 21.3 nM.

In the case of “GGAGCCGGCCUAGGAUAUUUCAUAAAAAGACAUGAGGAUCACCCAUGUAGGCCAGAAGGCCUUGGGAAGAAGGAGGUCGGCUCC [Loop Effect - G29] (Eterna round: R96, puzzle: Same State NG 2)”, the “apparent KD of MS2 coat protein” value was determined as 20.8 nM (input ligand: FMN 200 uM), 22.7 nM under setting [1] and 32.9 nM (input ligand: none).

For “GGAGCCGGCCUAGGAUAUUUCAUAUAAAAACAUGAGGAUCACCCAUGUAGGCCAGAAGGCCUUGGGAAGAAGGAGGUCGGCUCC [Loop Effect - U25] (Eterna round: R96, puzzle: Same State NG 2)”, the “apparent KD of MS2 coat protein” value reads like this: (input ligand: FMN 200 uM) 12.4 nM; under setting [1], 27.2 nM; (input ligand: none) 30.1 nM.

Consider “GGAGCCGGCCUAGGAUAUUUCAUAUAAUAACAUGAGGAUCACCCAUGUAGGCCAGAAGGCCUUGGGAAGAAGGAGGUCGGCUCC [Loop Effect - U25,U28] (Eterna round: R96, puzzle: Same State NG 2)”, for which the “apparent KD of MS2 coat protein” value is 13.1 nM (input ligand: FMN 200 uM), 39.1 nM under setting [1] and 50.8 nM (input ligand: none).

For “GGAGCCGGCCUAGGAUAUUUCAUAUUAAAACAUGAGGAUCACCCAUGUAGGCCAGAAGGCCUUGGGAAGAAGGAGGUCGGCUCC [Loop Effect - U25,U26] (Eterna round: R96, puzzle: Same State NG 2)”, the “apparent KD of MS2 coat protein” value reads like this: (input ligand: FMN 200 uM) 15.2 nM; under setting [1], 50.7 nM; (input ligand: none) 87.8 nM.

Consider “GGAGCCGGCCUAGGAUAUUUCAUAUUUAAACAUGAGGAUCACCCAUGUAGGCCAGAAGGCCUUGGGAAGAAGGAGGUCGGCUCC [Loop Effect - U25,U26,U27] (Eterna round: R96, puzzle: Same State NG 2)”, for which the “apparent KD of MS2 coat protein” value under setting [1] worked out at 57.4 nM.

As to “GGAGCCGGUACUGAGGAUAUUCGUAUUAAAACAUGAGGAUCACCCAUGUAGGCCAGAAGGCCUUGGGAGAAGGCAGAUCGGCUCC [Biseusra - 1] (puzzle: Same State 2)”, the “apparent KD of MS2 coat protein” value was found to be 13.2 nM under setting [2], 36 nM under setting [3] and 48.3 nM under setting [4].

Regarding “GGAGGACAUGAGGAUCACCCAUGUGGAUGGGCGCUAGGAUAUGCGUGCGGGAAGAGUGGAGCAGAAGGAGUGGGUU [JR_SS1_Sub045] (Eterna round: R96, puzzle: Same State 1)”, the “apparent KD of MS2 coat protein” value turned out to be 66.8 nM (input ligand: FMN 200 uM), 41.9 nM under setting [1] and 55.6 nM (input ligand: none).

Take “GGAGGACAUGAGGAUCACCCAUGUGGAUGGGCGCUAGGAUAUGCGUGCGGGAAGAGUGGAGCAGAAGGAGUGGGUU [JR_SS1_Sub045] (puzzle: Same State 1)”: the “apparent KD of MS2 coat protein” value under setting [3] worked out at 37.4 nM.
